Test results reported in patent publication US20110223163A1 (US Dept. of Health and Human Services, published 2011).

Tests used:
[1] = biological target: synthetic 10-mer peptide of γ-D-glutamic acids
BSA = BSA (UniProt P02769 25-607); assay: ELISA, full-length IgG
Sequence of BSA (P02769 25-607 limits assumed): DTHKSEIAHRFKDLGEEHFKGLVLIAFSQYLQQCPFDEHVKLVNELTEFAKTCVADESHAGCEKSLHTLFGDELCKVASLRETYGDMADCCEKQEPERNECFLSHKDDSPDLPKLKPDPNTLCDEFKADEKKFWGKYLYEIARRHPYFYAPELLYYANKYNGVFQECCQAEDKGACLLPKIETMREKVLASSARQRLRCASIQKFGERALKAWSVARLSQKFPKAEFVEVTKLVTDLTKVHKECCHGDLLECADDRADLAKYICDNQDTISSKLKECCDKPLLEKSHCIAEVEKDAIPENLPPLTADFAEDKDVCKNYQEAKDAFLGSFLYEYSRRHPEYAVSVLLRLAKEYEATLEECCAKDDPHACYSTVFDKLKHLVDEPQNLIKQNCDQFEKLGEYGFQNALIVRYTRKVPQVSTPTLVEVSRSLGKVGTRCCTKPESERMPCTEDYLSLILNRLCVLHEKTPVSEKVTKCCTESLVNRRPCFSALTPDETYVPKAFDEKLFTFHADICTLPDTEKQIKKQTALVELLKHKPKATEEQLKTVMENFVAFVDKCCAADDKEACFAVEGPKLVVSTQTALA

Binder | Kd [1] [nM] | koff [1] [s⁻¹] | kon [1] [M⁻¹ s⁻¹] | binding result (BSA)
anti-γDPGA chimpanzee monoclonal antibody 4C, full-length IgG with human γ1 constant regions (antibody, V domains shown, also called 4C IgG; IgG1 of anti-γDPGA 4C monoclonal antibody) VH: LEESGGGLVKPGDSLRLSCAASGFTFSVYAMHWVRQAPEKGLEWVSTIGAGGNTWHSDSVKGRYTIARDNSQNTLSLQMNSLRAEDTAVYYCVRRGYCSSTRCDSNDAFDIWGQGTMVTVS VL: APMTQSPSSLSASVGDRVSITCRASQDINDFLAWFQQKPGKAPKRLIFRTSSLQGGVSSRFSGSGSGTEFTLTISNLRPEDFATYYCLQHSSYPPTFGQGTKLEISR | 0.55 | 0.0023 | 4.2e+06 | no binding
anti-γDPGA chimpanzee monoclonal antibody 11D, full-length IgG with human γ1 constant regions (antibody, V domains shown, also called 11D IgG; CH11D-hG1) VH: LESGGGLVKPGGSLTLSCAASGFTFSTYAMHWVRQAPEKGLEWVSTIGRSGDTLYSDSVKGRFSISRDNSKNTLYLQMNSLRAEDTAVYYCARKGYCSSTNCQSQYYFDYWGQGTLVTVS VL: ELTQSPSSLSASVGGRVTITCRASQDVNTWLAWYQQKPGKAPKPLIYAASSLQGGVPSRFSGSGSGTDFTLTISSLQPEDFATYYCQQYKHYPLTFGGGTKVEIKR | 0.082 | 9.04e-05 | 1.1e+06 | no binding
